Experimental data reported in patent publication US12031137B2, “Compositions comprising SASP modulators and senescence attenuators and uses thereof for modulating cellular senescence” (RSEM, LIMITED PARTNERSHIP, priority 2016, dated 2024).

B1: Trap AG: NRP1 trap a1a2b2, aa about 22-280, 431-583 and 631-700; SEQ ID NOs 57/58 (protein)
chain: MERGLPLLCAVLALVLAPAGAFRNDKCGDTIKIESPGYLTSPGYPHSYHPSEKCEWLIQAPDPYQRIMINFNPHFDLEDRDCKYDYVEVFDGENENGHFRGKFCGKIAPPPVVSSGPFLFIKFVSDYETHGAGFSIRYELFKRGPECSQNYTTPSGVIKSPGFPEKYPNSLECTYIVFAPKMSEIILEFESFDLEPDSNPPGGMFCRYDRLEIWDGFPDVGPHIGRYCGQKTPGRIRSSSGILSMVFYTDSAIAKEGFSANYSVLQSSVSEDFKKITDYPCSGMLGMVSGLISDSQITSSNQGDRNWMPENIRLVTSRSGWALPPAPHSYINEWLQIDLGEEKIVRGIIIQGGKHRENKVFMRKFKIGYSNNGSDWKMIMDDSKRKAKSFEGNNNYDTPELRTFPALSTRFIRIYPERATHGGLGLRMELLGCRSGSKENLYFQG
B2: Trap AK: NRP1 trap a2b1b2, aa about 22-26 and 143-583; SEQ ID NOs 61/62 (protein)
chain: MERGLPLLCAVLALVLAPAGAFRNDKRGPECSQNYTTPSGVIKSPGFPEKYPNSLECTYIVFAPKMSEIILEFESFDLEPDSNPPGGMFCRYDRLEIWDGFPDVGPHIGRYCGQKTPGRIRSSSGILSMVFYTDSAIAKEGFSANYSVLQSSVSEDFKCMEALGMESGEIHSDQITASSQYSTNWSAERSRLNYPENGWTPGEDSYREWIQVDLGLLRFVTAVGTQGAISKETKKKYYVKTYKIDVSSNGEDWITIKEGNKPVLFQGNTNPTDVVVAVFPKPLITRFVRIKPATWETGISMRFEVYGCKITDYPCSGMLGMVSGLISDSQITSSNQGDRNWMPENIRLVTSRSGWALPPAPHSYINEWLQIDLGEEKIVRGIIIQGGKHRENKVFMRKFKIGYSNNGSDWKMIMDDSKRKAKSFEGNNNYDTPELRTFPALSTRFIRIYPERATHGGLGLRMELLGCRSGSKENLYFQG
B3: Trap AR: NRP1 trap a2b1, aa about 22-26 and 143-424; SEQ ID NOs 63/64 (protein)
chain: MERGLPLLCAVLALVLAPAGAFRNDKRGPECSQNYTTPSGVIKSPGFPEKYPNSLECTYIVFAPKMSEIILEFESFDLEPDSNPPGGMFCRYDRLEIWDGFPDVGPHIGRYCGQKTPGRIRSSSGILSMVFYTDSAIAKEGFSANYSVLQSSVSEDFKCMEALGMESGEIHSDQITASSQYSTNWSAERSRLNYPENGWTPGEDSYREWIQVDLGLLRFVTAVGTQGAISKETKKKYYVKTYKIDVSSNGEDWITIKEGNKPVLFQGNTNPTDVVVAVFPKPLITRFVRIKPATWETGISMRFEVYGCRSGSKENLYFQG
B4: Trap Y: NRP1 trap a1a2-c, aa about 22-274 and 584-856; SEQ ID NOs 91/92 (protein)
chain: FRNDKCGDTIKIESPGYLTSPGYPHSYHPSEKCEWLIQAPDPYQRIMINFNPHFDLEDRDCKYDYVEVFDGENENGHFRGKFCGKIAPPPVVSSGPFLFIKFVSDYETHGAGFSIRYELFKRGPECSQNYTTPSGVIKSPGFPEKYPNSLECTYIVFAPKMSEIILEFESFDLEPDSNPPGGMFCRYDRLEIWDGFPDVGPHIGRYCGQKTPGRIRSSSGILSMVFYTDSAIAKEGFSANYSVLQSSVSEDFKEVEAPTAGPTTPNGNLVDECDDDQANCHSGTGDDFQLTGGTTVLATEKPTVIDSTIQSEFPTYGFNCEFGWGSHKTFCHWEHDNHVQLKWSVLTSKTGPIQDHTGDGNFIYSQADENQKGKVARLVSPVVYSQNSAHCMTFWYHMSGSHVGTLRVKLRYQKPEEYDQLVWMAIGHQGDHWKEGRVLLHKSLKLYQVIFEGEIGKGNLGGIAVDDISINNHISQEDCAKPADLDKKNPEIKIDETGSTPGYEGEGEGDKNISRKPGNVLKTLDPRSGSKENLYFQG
B5: Trap P: NRP1 trap a1a2-b1, aa about 22-424, Y297A; SEQ ID NOs 83/84 (protein)
chain: FRNDKCGDTIKIESPGYLTSPGYPHSYHPSEKCEWLIQAPDPYQRIMINFNPHFDLEDRDCKYDYVEVFDGENENGHFRGKFCGKIAPPPVVSSGPFLFIKFVSDYETHGAGFSIRYELFKRGPECSQNYTTPSGVIKSPGFPEKYPNSLECTYIVFAPKMSEIILEFESFDLEPDSNPPGGMFCRYDRLEIWDGFPDVGPHIGRYCGQKTPGRIRSSSGILSMVFYTDSAIAKEGFSANYSVLQSSVSEDFKCMEALGMESGEIHSDQITASSQASTNWSAERSRLNYPENGWTPGEDSYREWIQVDLGLLRFVTAVGTQGAISKETKKKYYVKTYKIDVSSNGEDWITIKEGNKPVLFQGNTNPTDVVVAVFPKPLITRFVRIKPATWETGISMRFEVYGCRSGSKENLYFQG
B6: Trap X: NRP1 trap a1a2-b1-c, aa about 22-430 and 584-856, Y297A; SEQ ID NOs 89/90 (protein)
chain: FRNDKCGDTIKIESPGYLTSPGYPHSYHPSEKCEWLIQAPDPYQRIMINFNPHFDLEDRDCKYDYVEVFDGENENGHFRGKFCGKIAPPPVVSSGPFLFIKFVSDYETHGAGFSIRYELFKRGPECSQNYTTPSGVIKSPGFPEKYPNSLECTYIVFAPKMSEIILEFESFDLEPDSNPPGGMFCRYDRLEIWDGFPDVGPHIGRYCGQKTPGRIRSSSGILSMVFYTDSAIAKEGFSANYSVLQSSVSEDFKCMEALGMESGEIHSDQITASSQASTNWSAERSRLNYPENGWTPGEDSYREWIQVDLGLLRFVTAVGTQGAISKETKKKYYVKTYKIDVSSNGEDWITIKEGNKPVLFQGNTNPTDVVVAVFPKPLITRFVRIKPATWETGISMRFEVYGCKITDYPEVEAPTAGPTTPNGNLVDECDDDQANCHSGTGDDFQLTGGTTVLATEKPTVIDSTIQSEFPTYGFNCEFGWGSHKTFCHWEHDNHVQLKWSVLTSKTGPIQDHTGDGNFIYSQADENQKGKVARLVSPVVYSQNSAHCMTFWYHMSGSHVGTLRVKLRYQKPEEYDQLVWMAIGHQGDHWKEGRVLLHKSLKLYQVIFEGEIGKGNLGGIAVDDISINNHISQEDCAKPADLDKKNPEIKIDETGSTPGYEGEGEGDKNISRKPGNVLKTLDPRSGSKENLYFQG
B7: Trap AF: NRP1 trap a1a2b2c, aa 1-280 and 431-856 incl. SP; SEQ ID NOs 55/56 (protein)
chain: MERGLPLLCAVLALVLAPAGAFRNDKCGDTIKIESPGYLTSPGYPHSYHPSEKCEWLIQAPDPYQRIMINFNPHFDLEDRDCKYDYVEVFDGENENGHFRGKFCGKIAPPPVVSSGPFLFIKFVSDYETHGAGFSIRYELFKRGPECSQNYTTPSGVIKSPGFPEKYPNSLECTYIVFAPKMSEIILEFESFDLEPDSNPPGGMFCRYDRLEIWDGFPDVGPHIGRYCGQKTPGRIRSSSGILSMVFYTDSAIAKEGFSANYSVLQSSVSEDFKKITDYPCSGMLGMVSGLISDSQITSSNQGDRNWMPENIRLVTSRSGWALPPAPHSYINEWLQIDLGEEKIVRGIIIQGGKHRENKVFMRKFKIGYSNNGSDWKMIMDDSKRKAKSFEGNNNYDTPELRTFPALSTRFIRIYPERATHGGLGLRMELLGCEVEAPTAGPTTPNGNLVDECDDDQANCHSGTGDDFQLTGGTTVLATEKPTVIDSTIQSEFPTYGFNCEFGWGSHKTFCHWEHDNHVQLKWSVLTSKTGPIQDHTGDGNFIYSQADENQKGKVARLVSPVVYSQNSAHCMTFWYHMSGSHVGTLRVKLRYQKPEEYDQLVWMAIGHQGDHWKEGRVLLHKSLKLYQVIFEGEIGKGNLGGIAVDDISINNHISQEDCAKPADLDKKNPEIKIDETGSTPGYEGEGEGDKNISRKPGNVLKTLDPRSGSKENLYFQG
B8: Trap AJ: NRP1 trap a2b1b2c, aa about 22-26, 143-630 and 701-856; SEQ ID NOs 59/60 (protein)
chain: MERGLPLLCAVLALVLAPAGAFRNDKRGPECSQNYTTPSGVIKSPGFPEKYPNSLECTYIVFAPKMSEIILEFESFDLEPDSNPPGGMFCRYDRLEIWDGFPDVGPHIGRYCGQKTPGRIRSSSGILSMVFYTDSAIAKEGFSANYSVLQSSVSEDFKCMEALGMESGEIHSDQITASSQYSTNWSAERSRLNYPENGWTPGEDSYREWIQVDLGLLRFVTAVGTQGAISKETKKKYYVKTYKIDVSSNGEDWITIKEGNKPVLFQGNTNPTDVVVAVFPKPLITRFVRIKPATWETGISMRFEVYGCKITDYPCSGMLGMVSGLISDSQITSSNQGDRNWMPENIRLVTSRSGWALPPAPHSYINEWLQIDLGEEKIVRGIIIQGGKHRENKVFMRKFKIGYSNNGSDWKMIMDDSKRKAKSFEGNNNYDTPELRTFPALSTRFIRIYPERATHGGLGLRMELLGCEVEAPTAGPTTPNGNLVDECDDDQANCHSGTGDDFQLTGGTTVLATEKPTVIDSTIQSEFPTYGFNCEFGWGSHKTFCHWEHDNHVQLKWSVLTSKTGPIQDHTGDGNFIYSQADENQKGKVARLVSPVVYSQNSAHCMTFWYHMSGSHVGTLRVKLRYQKPEEYDQLVWMAIGHQGDHWKEGRVLLHKSLKLYQVIFEGEIGKGNLGGIAVDDISINNHISQEDCAKPADLDKKNPEIKIDETGSTPGYEGEGEGDKNISRKPGNVLKTLDPRSGSKENLYFQG

test system: SEMA3A-FC; test: Sema 3A binding assay on plate-coated purified traps (saturation curves, KD); conditions: Table 2, Yes/No
Protocol: Sema 3A and AP-VEGF165 binding assays. Saturation curves for the determinations of KD of binding to SEMA 3A or VEGF165 were obtained as follow. Wells of high protein binding 96 well plates (Maxisorp, Nunc) were coated with purified traps diluted in PBS and blocked afterward with binding buffer (PBS containing 2% casein and 0.05% Tween 20). The SEMA3A-FC (R&D systems) or AP-VEGF165 ligands were diluted in binding buffer over an extensive range of concentrations and added to wells. Following an overnight incubation, wells were washed with PBS containing 0.05% tween. Bound SEMA3a-FC was detected using an HRP-linked anti-Human IgG (Biorad) and ECL substrate (Pierce). Alternatively, bound AP-VEGF165 was detected using CPD star substrate (Roche). The Chemiluminescent signal was acquired on a TECAN reader. Dissociation constant (KD) were determined by non-linear curve fitting using the Graph Pad prism software.
The relative affinity of traps of the present invention to SEMA3A and VEGF has been assessed. Traps were prepared as described in Example 8.

| Binding to SEMA3A | Molecule |
| --- | --- |
| Yes | B1 |
| Yes | B2 |
| Yes | B3 |
| No | B4 |
| No | B5 |
| No | B6 |
| No | B7 |
| Yes | B8 |

same assay, conditions: traps coated on plate, overnight incubation

| SEMA 3A-FC binding (dissociation constant) | Molecule |
| --- | --- |
| No binding | B5 |
| No binding | B6 |
| No binding | B7 |

same assay, conditions: traps coated on plate, overnight incubation; read-out: SEMA 3A-FC binding (dissociation constant)

| Kd [nM] | Molecule |
| --- | --- |
| > 750 | B4 |
